From US20150110817A1, “RADIO-PHARMACEUTICAL COMPLEXES” (published 2015)
Each block holds one molecule with its values, some of them ahead of it.

Key:
[1] = molecular target: CD22 on CD22-positive Raji or Ramos cells (human) (UniProt P20273); assay: flow cytometry on CD22-positive Raji cells
[2] = molecular target: CD33 on CD33-positive HL-60 cells (human, UniProt P20138); assay: flow cytometry on HL-60 cells, 50:50 mixture; competitor: mouse anti-human CD33 reference mAb
Procedure: Binding to CD33-positive HL-60 cells were studied by flow cytometry. The determination of EC₅₀ based on the plotted curve gives an approximate value for the affinity.
The mAb or conjugate to be analyzed was prepared fresh form frozen stock by shifting the storage buffer to PBS, kept at 4° C., and used within a few days after preparation. […] The secondary antibody reagent was prepared at 0.015 mg/mL in PBS, supplemented with 0.1% BSA. The mAb stock was diluted in 10-fold dilution steps, starting from 5 mg/mL. An isotype control mAb (trastuzumab) was prepared accordingly. 20 uL from each dilution step of the anti-human CD33 mAb was added to wells containing HL-60 cells. After incubation for 1 h at 4° C. the cells were spun down and washed three times with 200 μl cold PBS, supplemented with 0.1% BSA. A solution containing 4% goat serum was added as a blocking agent, and incubated for 15 minutes. 20 μl from the secondary antibody reagent was subsequently added to each well, before incubation for 30 min at 4° C. in the dark.
The cells were washed twice, as described above, and re-suspended in 200 μL PBS, supplemented with 0.1% BSA. All samples were analysed in 96-well round or conical bottom plates. Fluorescent signals were recorded on a Beckham Coulter Cell lab Quant SC flow cytometer (Beckman Coulter; CA, USA). […]

- EC50 [1]: 9 nM
Molecule: AGC1100 (anti-CD22 monoclonal antibody hLL2, also called epratuzumab)

- fold less antibody bound [2]: ~0.7 fold
B1: AGC0700 (anti-CD33 monoclonal antibody, generated from the HuM195 template) (antibody, V domains shown)
VH: QVQLVQSGAEVKKPGSSVKVSCKASGYTFTDYNMHWVRQAPGQGLEWIGYIYPYNGGTGYNQKFKSKATITADESTNTAYMELSSLRSEDTAVYYCARGRPAMDYWGQGTLVTVSS
VL: DIQMTQSPSSLSASVGDRVTITCRASESVDNYGISFMNWFQQKPGKAPKLLIYAASNQGSGVPSRFSGSGSGTDFTLTISSLQPDDFATYYCQQSKEVPWTFGQGTKVEIKR

- EC50 [1]: 6 nM
B2: AGC1115 (AGC1100 conjugated to the water soluble chelator AGC0015) (antibody, INN chains, looked up, V domains shown)
VH: QVQLVQSGAEVKKPGSSVKVSCKASGYTFTSYWLHWVRQAPGQGLEWIGYINPRNDYTEYNQNFKDKATITADESTNTAYMELSSLRSEDTAFYFCARRDITTFYWGQGTTVTVSS
VL: DIQLTQSPSSLSASVGDRVTMSCKSSQSVLYSANHKNYLAWYQQKPGKAPKLLIYWASTRESGVPSRFSGSGSGTDFTFTISSLQPEDIATYYCHQYLSSWTFGGGTKLEIK
modifications: conjugated to chelator AGC0015
